The results in this text go back to US20230272055A1, “ANTI-MUTANT CALRETICULIN (CALR) ANTIBODIES AND USES THEREOF” (Incyte Corporation, priority 2021, published 2023).

Positions count from the first letter of the chain named. Where two headings read alike, the source gives them in different places.

The target in assay [1] is Human Type 1 mutCALR (human). Briefly: cell-based or functional assay.
For assay [2], the target named is human Type 1 mutCALR on Ba/F3 cells expressing MPL and Type 1 mutCALR (human). The assay is described as follows: cell-based or functional assay.
Chain of human Type 1 mutCALR on Ba/F3 cells expressing MPL and Type 1 mutCALR (human) (chain, as listed by the source limits assumed): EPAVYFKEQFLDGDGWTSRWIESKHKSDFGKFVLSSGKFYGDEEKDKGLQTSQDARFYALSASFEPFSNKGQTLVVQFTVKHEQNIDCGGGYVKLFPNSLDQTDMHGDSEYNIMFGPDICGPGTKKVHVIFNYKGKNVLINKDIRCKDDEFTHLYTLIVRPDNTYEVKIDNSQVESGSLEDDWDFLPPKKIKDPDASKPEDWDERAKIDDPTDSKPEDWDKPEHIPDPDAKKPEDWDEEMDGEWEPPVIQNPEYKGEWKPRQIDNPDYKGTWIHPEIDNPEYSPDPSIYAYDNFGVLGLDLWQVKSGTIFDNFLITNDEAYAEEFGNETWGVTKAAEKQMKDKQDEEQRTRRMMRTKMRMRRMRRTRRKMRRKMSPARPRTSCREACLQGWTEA
The target in assay [3] is human Type 1 mutCALR (52 bp deletion) (human).
Chain of human Type 1 mutCALR (52 bp deletion) (human) (chain, as listed by the source limits assumed, stated change not applied): as the sequence (chain, as listed by the source limits assumed) above
The target is the same in assay [4]. The source holds these as a separate data set.
Assay [5] shares this target. The source holds these as a separate data set.
Assay [6] has the same target. The source holds these as a separate data set.
For assay [7] the target is unchanged. The source holds these as a separate data set.

Chain of Human Type 1 mutCALR (human) (chain, as listed by the source limits assumed): as above

B1: AB2: anti-mutCALR antibody including VH and VL regions of antibody B3 from WO2020175689 fused to human constant regions (antibody, human IgG1, kappa, V domains shown)
VH: QVQLQQSGAELVKPGSSVKISCKASGYTFTRNFIHWIKQQPGNGLEWIGWIFPGDGDTEYNQKFNGKATLTADKSSSTAYMQLSSLTSEDSAVYFCARGNYNYEYFDYWGQGVMVTVSS
VL: DIQMTQSPASLSASLGETVSIECLASEDIYSYLAWYQQKPGKSPQLLIFAANRLQDGVPSRFSGSGSGTQFSLKISGMQPEDEGDYFCLQGSKFPYTFGPGTKLELNR
As to B1, the IC50 of inhibition of cell proliferation (BaF3 cells expressing MPL/mutCALR Type 1) in assay [1] was > 60000 ng/mL.

B2: AB3: anti-mutCALR antibody including the BJ095 VH region and the BJ097 VL region from WO2019178362 fused to human constant regions (antibody, human IgG1, kappa, V domains shown)
VH: QVQLVQSGAEVKKPGASVKVSCKASGYSFTGYYIHWVRQAPGQGLEWIGYISAYNGASSYNQKFKGRATFTVDTSISTAYMELSRLRSDDTAVYYCASSMDYWGQGTLVTVSS
VL: DVVMTQSPLSLPVTLGQPASISCKSSQSLLDSDGKTYLNWLQQRPGQSPKRLIYLVSKLDSGVPDRFSGSGSGTDFTLKISRVEAEDVGVYHCWQGTHFPYTFGQGTKLIEKR
As to B2, in assay [1], the IC50 of inhibition of cell proliferation (BaF3 cells expressing MPL/mutCALR Type 1) was > 60000 ng/mL.

B3: anti-mutCALR antibody clone 54 (antibody, human IgG1, kappa, V domains shown)
VH: QVTLKESGPGILKPSQTLSLTCSFSGFSLSTSGMGVGWIRQPSGKGLEWLAHIWWDDDKYYNPYLKNQVTISKDTSRNQVFLKITSVDTADTATYYCARSAYGSTYGYWGQGTTLTVSS
VL: DIVLTQSPASLAVSLGQRATISCKASQSVDYDGDSFMNWYQQKPGQPPKLLIYTASILESGIPARFSGSGSGTDFTLNIHPVEEEDAATYYCQQSNEDPWTFGGGTKLEIKR
Molecule B3 yielded an IC50, inhibition of pSTAT5 in assay [2] of 12.7 µg/mL.

B4: anti-mutCALR antibody clone 68 (antibody, human IgG1, lambda, N297A, V domains shown)
VH: EVQLVQSGAEVKKPGASVKVSCKVSGYTLTELSMQWVRQAPGKGLEWMGGFDPDEGETMYAEKFQGRLTVTEDTSTDTVYMELRSLTSEDTALYFCATSPGYDFFDYWGQGTLVTVSS
VL: SYVLTQPPSVSVAPGKTARITCTGTSSDVGGYNYVSWYQQKPGQAPVLVVYEVSNRPSGIPERFSGSNSGNTATLTISRVEAGDEADYYCQVWDSSNDLLIFGGGTKLTVLG
B4 registered an IC50 of inhibition of cell proliferation (Ba/F3 cells with MPL and mutCALR Type 1) in assay [1] of 0.9 ng/mL. In assay [3], this molecule came in with an IC50 of inhibition of MPL-LgBiT/MPL-smBiT dimerization (NanoBiT luminescence, percent of isotype) in transfected HAP1 JAK2-knockout cells of 3.27 ng/mL.

B5: anti-mutCALR antibody clone 65 (antibody, human IgG1, lambda, N297A, V domains shown)
VH: B4 VH with E55D
VL: B4 VL
With B5, in assay [1], the IC50 of inhibition of cell proliferation (Ba/F3 cells with MPL and mutCALR Type 1) amounted to 0.3 ng/mL. Besides, in assay [4], the IC50 of inhibition of MPL-LgBiT/MPL-smBiT dimerization (NanoBiT luminescence, percent of isotype) in transfected HAP1 JAK2-knockout cells stood at 3.27 ng/mL.

B6: anti-mutCALR antibody clone 14 (antibody, human IgG1, lambda, V domains shown)
VH: B4 VH with E55D, T69A
VL: SYVLTQPPSVSVAPGKTARITCGGYNIGSKFVHWYRQRPGQAPVLVVYDDRDRPSGIPERFSGSNSGNTATLTISRVEAGDEADYYCQVWDSSNDLLIFGGGTKLTVLG
As to B6, in assay [2], the IC50, inhibition of pSTAT5 was 0.06 µg/mL.

B7: anti-mutCALR antibody clone 188 (antibody, human IgG1, lambda, N297A, V domains shown)
VH: B4 VH with R84S, T87R, L93V
VL: SYVLTQPPSVSVAPGQTARITCGGSDIGDEIVHWYQQKPGQAPVLVVYDDSDRPSGIPERFSGSNSGNTATLTISRVEAGDEADYYCQVWDSSSDHLIFGGGTKLTVLG
Regarding B7, the IC50 of inhibition of MPL-LgBiT/MPL-smBiT dimerization (NanoBiT luminescence, percent of isotype) in transfected HAP1 JAK2-knockout cells in assay [5] worked out at 2.48 ng/mL. The molecule further had an IC50 of inhibition of cell proliferation (Ba/F3 cells with MPL and mutCALR Type 1) in assay [1] of 4.6 ng/mL.

B8: anti-mutCALR antibody clone 74 (antibody, human IgG1, lambda, N297A, V domains shown)
VH: B4 VH with E55D, G56A, R84S, T87R, L93V
VL: B4 VL
In assay [6], B8 came in with an IC50 of inhibition of MPL-LgBiT/MPL-smBiT dimerization (NanoBiT luminescence, percent of isotype) in transfected HAP1 JAK2-knockout cells of 8.89 ng/mL. Further, in assay [1], the IC50 of inhibition of cell proliferation (Ba/F3 cells with MPL and mutCALR Type 1) was determined as 1 ng/mL; the Log IC50 of inhibition of cell proliferation, antibody + ruxolitinib (Ba/F3-TPOR/mutCALR type 1 cells) (Log IC50 (µg/mL)) was -1.46; the Log IC50 of inhibition of cell proliferation, antibody alone (Ba/F3-TPOR/mutCALR type 1 cells) (Log IC50 (µg/mL)) was -0.438.

B9: anti-mutCALR antibody clone 184 (antibody, human IgG1, lambda, N297A, V domains shown)
VH: B4 VH with E55D, G56A
VL: B7 VL
As for B9, the IC50 of inhibition of MPL-LgBiT/MPL-smBiT dimerization (NanoBiT luminescence, percent of isotype) in transfected HAP1 JAK2-knockout cells in assay [7] was found to be 3.77 ng/mL. Further, the IC50 of inhibition of cell proliferation (Ba/F3 cells with MPL and mutCALR Type 1) in assay [1] came to 1.9 ng/mL.

B10: anti-mutCALR antibody clone 128 (antibody, human IgG1, lambda, N297A, V domains shown)
VH: B4 VH with E55D, G56A
VL: B6 VL with V3E, Y25D, F31S, R36Q, R38K, R51S, S75N
The molecule B10 gave an IC50 of inhibition of cell proliferation (Ba/F3 cells with MPL and mutCALR Type 1) in assay [1] of 9.8 ng/mL.
